This data set concerns Escherichia coli TOP10. As to the kind of experiment: shrunken log2 fold change of peptide-encoding DNA abundance (4.5 h post-induction vs induction); higher = less antimicrobial activity (less host growth inhibition). The conditions noted are these: time post-induction: 4.5 h; library: site-saturation at positions 5, 18, 19, 20.
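Note: peptides expressed intracellularly from a pBAD plasmid library in pooled LB shake-flask culture, induced with 0.3% L-arabinose, DNA abundance read by NGS, three biological replicates, DESeq2 with apeglm shrinkage.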

As to RRIRARPPRLPRPRPRPEEFPRP, the “shrunken log2 fold change” value was 0.00844.
Turning to RRIRRRPPRLPRPRPRPGKWPRP, the “shrunken log2 fold change” value was 0.152.
In the case of RRIRGRPPRLPRPRPRPVFIPRP it was 0.0618; in that of RRIRLRPPRLPRPRPRPLGTPRP, 0.18; in that of RRIRCRPPRLPRPRPRPYMHPRP, -0.31.
Regarding RRIRNRPPRLPRPRPRPMKFPRP, the “shrunken log2 fold change” value was -0.000903.
Turning to RRIRARPPRLPRPRPRPGLIPRP, the “shrunken log2 fold change” value came out at 0.0698.
As to RRIRNRPPRLPRPRPRPHDRPRP, the “shrunken log2 fold change” value was -0.146.
RRIRFRPPRLPRPRPRPTIEPRP: the “shrunken log2 fold change” value was -0.037.
Consider RRIRKRPPRLPRPRPRPMHPPRP, for which the “shrunken log2 fold change” value was 0.19.
On to RRIRPRPPRLPRPRPRPYPYPRP, for which the “shrunken log2 fold change” value was -0.124.
As for RRIRKRPPRLPRPRPRPYLMPRP, the “shrunken log2 fold change” value is -0.0192.
Regarding RRIRPRPPRLPRPRPRPVHSPRP, the “shrunken log2 fold change” value was 0.127.
On to RRIRGRPPRLPRPRPRPQHEPRP, for which the “shrunken log2 fold change” value is 0.0159.
With RRIRCRPPRLPRPRPRPLTGPRP, the “shrunken log2 fold change” value was -0.994.
Take RRIRMRPPRLPRPRPRPSAVPRP: the “shrunken log2 fold change” value was determined as 1.16.
As for RRIRCRPPRLPRPRPRPTDEPRP, the “shrunken log2 fold change” value came out at 2.52.
For the sequence RRIRYRPPRLPRPRPRPLKAPRP, the “shrunken log2 fold change” value came to 0.141.
The same measure for RRIRPRPPRLPRPRPRPHRHPRP: -0.47.
Turning to RRIRNRPPRLPRPRPRPSTMPRP, the “shrunken log2 fold change” value is -1.15.
In the case of RRIRLRPPRLPRPRPRPMQRPRP it was 0.0784.
For the sequence RRIRHRPPRLPRPRPRPWKKPRP, the “shrunken log2 fold change” value was -0.0699.
In the case of RRIRPRPPRLPRPRPRPYYSPRP, the “shrunken log2 fold change” value is -0.246.
In the case of RRIRIRPPRLPRPRPRPQACPRP it was 0.126; in that of RRIRLRPPRLPRPRPRPYDCPRP, 0.0192.
In the case of RRIRRRPPRLPRPRPRPQKFPRP it was -0.0996; in that of RRIRIRPPRLPRPRPRPVRAPRP, 0.172.
Take RRIRHRPPRLPRPRPRPIWQPRP: the “shrunken log2 fold change” value was -0.123.
As to RRIRTRPPRLPRPRPRPKHRPRP, the “shrunken log2 fold change” value was -0.191.
The same measure for RRIRERPPRLPRPRPRPSQCPRP: -0.0684; for RRIRARPPRLPRPRPRPTCWPRP: 0.651.
In the case of RRIRHRPPRLPRPRPRPLLKPRP, the “shrunken log2 fold change” value was -0.013.
For the sequence RRIRNRPPRLPRPRPRPVEMPRP, the “shrunken log2 fold change” value is 0.0554.
Consider RRIRLRPPRLPRPRPRPAWPPRP, for which the “shrunken log2 fold change” value was determined as 0.42.
Take RRIRDRPPRLPRPRPRPPCHPRP: the “shrunken log2 fold change” value is -0.363.
Take RRIRTRPPRLPRPRPRPLACPRP: the “shrunken log2 fold change” value came to 0.0365.
Regarding RRIRKRPPRLPRPRPRPNFDPRP, the “shrunken log2 fold change” value worked out at 0.367.
Consider RRIRWRPPRLPRPRPRPQSIPRP, for which the “shrunken log2 fold change” value is -0.584.
As to RRIRHRPPRLPRPRPRPRMEPRP, the “shrunken log2 fold change” value is -0.0339.
Take RRIRRRPPRLPRPRPRPYRCPRP: the “shrunken log2 fold change” value is -1.3.
In the case of RRIRPRPPRLPRPRPRPCRIPRP it was -0.00277; in that of RRIRFRPPRLPRPRPRPLGVPRP, 0.0349; in that of RRIRFRPPRLPRPRPRPMPPPRP, 0.55.
In the case of RRIRSRPPRLPRPRPRPKKDPRP it was 0.104.
In the case of RRIRIRPPRLPRPRPRPCSYPRP it was -0.176; in that of RRIRKRPPRLPRPRPRPLEVPRP, 0.0569; in that of RRIRKRPPRLPRPRPRPLWAPRP, 0.452.
Regarding RRIRRRPPRLPRPRPRPKSCPRP, the “shrunken log2 fold change” value was determined as 0.0766.
For RRIRVRPPRLPRPRPRPVRPPRP, the “shrunken log2 fold change” value worked out at 0.555.
RRIRIRPPRLPRPRPRPPCSPRP: the “shrunken log2 fold change” value was -0.339.
Regarding RRIRFRPPRLPRPRPRPPRSPRP, the “shrunken log2 fold change” value is 0.488.
In the case of RRIRVRPPRLPRPRPRPWSEPRP, the “shrunken log2 fold change” value is -0.00215.
With RRIRERPPRLPRPRPRPQAWPRP, the “shrunken log2 fold change” value was found to be 0.0278.
Regarding RRIRSRPPRLPRPRPRPYGDPRP, the “shrunken log2 fold change” value was -0.115.
As for RRIRARPPRLPRPRPRPVDQPRP, the “shrunken log2 fold change” value stood at 0.607.
For RRIRLRPPRLPRPRPRPPSDPRP, the “shrunken log2 fold change” value worked out at 0.432.
As for RRIRLRPPRLPRPRPRPYNYPRP, the “shrunken log2 fold change” value is -0.439.
As to RRIRNRPPRLPRPRPRPHFHPRP, the “shrunken log2 fold change” value is -0.529.
The same measure for RRIRNRPPRLPRPRPRPDCNPRP: -0.0899; for RRIRKRPPRLPRPRPRPKKMPRP: 0.718; for RRIRMRPPRLPRPRPRPNTNPRP: 0.128.
As for RRIRNRPPRLPRPRPRPIMWPRP, the “shrunken log2 fold change” value came out at 0.137.
On to RRIRFRPPRLPRPRPRPWIRPRP, for which the “shrunken log2 fold change” value is -0.205.
Turning to RRIRHRPPRLPRPRPRPPWKPRP, the “shrunken log2 fold change” value stood at 0.174.
In the case of RRIRKRPPRLPRPRPRPDLLPRP it was 0.237; in that of RRIRCRPPRLPRPRPRPFFRPRP, -0.116; in that of RRIRYRPPRLPRPRPRPDHHPRP, -0.0423.
With RRIRHRPPRLPRPRPRPNMWPRP, the “shrunken log2 fold change” value was -0.799.
RRIRSRPPRLPRPRPRPCLMPRP: the “shrunken log2 fold change” value is -0.135.
Take RRIRMRPPRLPRPRPRPSTPPRP: the “shrunken log2 fold change” value was 0.0303.
As to RRIRHRPPRLPRPRPRPYGDPRP, the “shrunken log2 fold change” value was -0.808.
As for RRIRTRPPRLPRPRPRPSRFPRP, the “shrunken log2 fold change” value turned out to be 0.244.
Turning to RRIRMRPPRLPRPRPRPMWDPRP, the “shrunken log2 fold change” value stood at 0.128.
The same measure for RRIRARPPRLPRPRPRPKVNPRP: -0.109; for RRIRDRPPRLPRPRPRPWCWPRP: 0.036.
Consider RRIRFRPPRLPRPRPRPVLTPRP, for which the “shrunken log2 fold change” value was -0.213.
With RRIRYRPPRLPRPRPRPSTGPRP, the “shrunken log2 fold change” value is -0.0197.
Regarding RRIRTRPPRLPRPRPRPCLPPRP, the “shrunken log2 fold change” value was -0.0953.
The same measure for RRIRIRPPRLPRPRPRPVMLPRP: -0.776; for RRIRGRPPRLPRPRPRPIYYPRP: -0.197; for RRIRLRPPRLPRPRPRPFMWPRP: -0.121.
For RRIRDRPPRLPRPRPRPLGEPRP, the “shrunken log2 fold change” value came to 0.147.
For RRIRPRPPRLPRPRPRPKECPRP, the “shrunken log2 fold change” value amounted to 0.241.
RRIRFRPPRLPRPRPRPEVAPRP: the “shrunken log2 fold change” value is -0.088.
In the case of RRIRWRPPRLPRPRPRPSVQPRP it was 0.128.
In the case of RRIRPRPPRLPRPRPRPWDVPRP it was 0.308; in that of RRIRKRPPRLPRPRPRPWRAPRP, 0.5; in that of RRIRTRPPRLPRPRPRPFVMPRP, -0.277.
With RRIRVRPPRLPRPRPRPEAGPRP, the “shrunken log2 fold change” value worked out at 0.553.
Take RRIRTRPPRLPRPRPRPQEAPRP: the “shrunken log2 fold change” value worked out at 0.0871.
For the sequence RRIRWRPPRLPRPRPRPNGTPRP, the “shrunken log2 fold change” value came out at 1.67.
Turning to RRIRSRPPRLPRPRPRPVRKPRP, the “shrunken log2 fold change” value amounted to 0.324.
As to RRIRSRPPRLPRPRPRPMQTPRP, the “shrunken log2 fold change” value is 0.291.
As for RRIRARPPRLPRPRPRPHQHPRP, the “shrunken log2 fold change” value was -0.109.
The same measure for RRIRSRPPRLPRPRPRPEDPPRP: 0.931.
The same measure for RRIRERPPRLPRPRPRPCGDPRP: -0.231; for RRIRMRPPRLPRPRPRPAIFPRP: 0.243; for RRIRARPPRLPRPRPRPKLRPRP: 0.178.
As for RRIRFRPPRLPRPRPRPAPIPRP, the “shrunken log2 fold change” value came to 0.108.
Take RRIRDRPPRLPRPRPRPIPAPRP: the “shrunken log2 fold change” value is 0.0318.
Take RRIRDRPPRLPRPRPRPMFAPRP: the “shrunken log2 fold change” value came out at 0.199.
With RRIRQRPPRLPRPRPRPSMDPRP, the “shrunken log2 fold change” value was -0.271.
On to RRIRPRPPRLPRPRPRPPRAPRP, for which the “shrunken log2 fold change” value was 0.591.
The same measure for RRIRNRPPRLPRPRPRPIMMPRP: -0.103.
Take RRIRHRPPRLPRPRPRPQDAPRP: the “shrunken log2 fold change” value is -0.00992.
Regarding RRIRRRPPRLPRPRPRPFYVPRP, the “shrunken log2 fold change” value was -0.0483.
In the case of RRIRARPPRLPRPRPRPQWRPRP it was 0.218.
In the case of RRIRFRPPRLPRPRPRPNMDPRP it was 1.48.
Regarding RRIRSRPPRLPRPRPRPGKMPRP, the “shrunken log2 fold change” value was -0.0839.
As for RRIRNRPPRLPRPRPRPTNWPRP, the “shrunken log2 fold change” value is 0.31.
The same measure for RRIRGRPPRLPRPRPRPGEDPRP: 0.872.
Take RRIRKRPPRLPRPRPRPIHYPRP: the “shrunken log2 fold change” value was -0.15.
In the case of RRIRSRPPRLPRPRPRPQDVPRP, the “shrunken log2 fold change” value is -0.277.
Turning to RRIRARPPRLPRPRPRPCAHPRP, the “shrunken log2 fold change” value was -0.0288.
As for RRIRGRPPRLPRPRPRPENRPRP, the “shrunken log2 fold change” value turned out to be 0.19.
As to RRIRIRPPRLPRPRPRPWDPPRP, the “shrunken log2 fold change” value was -0.0252.
On to RRIRARPPRLPRPRPRPMCFPRP, for which the “shrunken log2 fold change” value came out at 0.18.
For RRIRGRPPRLPRPRPRPVYWPRP, the “shrunken log2 fold change” value was 1.38.
In the case of RRIRYRPPRLPRPRPRPKAAPRP, the “shrunken log2 fold change” value stood at 0.067.
RRIRGRPPRLPRPRPRPNWKPRP: the “shrunken log2 fold change” value came to 0.332.
In the case of RRIRARPPRLPRPRPRPHKRPRP, the “shrunken log2 fold change” value turned out to be 0.157.
RRIRTRPPRLPRPRPRPQGEPRP: the “shrunken log2 fold change” value was -0.0823.
In the case of RRIRFRPPRLPRPRPRPMYQPRP it was -0.167; in that of RRIRKRPPRLPRPRPRPWTGPRP, -0.0587; in that of RRIRTRPPRLPRPRPRPCPMPRP, 0.00574.

These data come from the supplement of paper PMC9112550, “Optimization of the antimicrobial peptide Bac7 by deep mutational scanning” (BMC Biology, 2022).
